Assay results: the supplement of paper PMC10567573

B1: ATL3 (parent)
chain: YGLQGGMAFLDKRLQVKEHQHEEI

Variants of: B1
Test: protein stability index of a GFP-peptide fusion (GPS, HEK-293T) (PSI 1-6); higher = more stable
Conditions: c terminus: a fixed tail appended
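Further: lentivirally expressed fusions sorted by FACS into six bins by GFP to DsRed ratio, PSI derived from sequencing read proportions per bin multiplied by bin number.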

Row | Variant | protein stability index
1 | YGLQGGMAFNDKRLQVKEHQHEEI [L10N] | 2.05
2 | YGLQGGMAFPDKRLQVKEHQHEEI [L10P] | 3.39
3 | YGLQGGMAFMDKRLQVKEHQHEEI [L10M] | 1.54
4 | YGLQGGMAFTDKRLQVKEHQHEEI [L10T] | 2.35
5 | YGLQGGMAFDDKRLQVKEHQHEEI [L10D] | 4.11
6 | YGLQGGMAFGDKRLQVKEHQHEEI [L10G] | 1.89
7 | YGLQGGMAFVDKRLQVKEHQHEEI [L10V] | 2.57
8 | YGLQGGMAFCDKRLQVKEHQHEEI [L10C] | 3.07
9 | YGLQGGMAFEDKRLQVKEHQHEEI [L10E] | 3.82
10 | YGLQGGMAFKDKRLQVKEHQHEEI [L10K] | 1.62
11 | YGLQGGMAFADKRLQVKEHQHEEI [L10A] | 3.49
12 | YGLQGGMAFWDKRLQVKEHQHEEI [L10W] | 1.96
13 | YGLQGGMAFFDKRLQVKEHQHEEI [L10F] | 2.03
14 | YGLQGGMAFHDKRLQVKEHQHEEI [L10H] | 1.98
15 | YGLQGGMAFYDKRLQVKEHQHEEI [L10Y] | 1.68
16 | YGLQGGMAFQDKRLQVKEHQHEEI [L10Q] | 1.65
17 | YGLQGGMNFLDKRLQVKEHQHEEI [A8N] | 2.33
18 | YGLQGGMVFLDKRLQVKEHQHEEI [A8V] | 2.42
19 | YGLQGGMEFLDKRLQVKEHQHEEI [A8E] | 2.91
20 | YGLQGGMWFLDKRLQVKEHQHEEI [A8W] | 3.35
21 | YGLQGGMRFLDKRLQVKEHQHEEI [A8R] | 1.74
22 | YGLQGGMHFLDKRLQVKEHQHEEI [A8H] | 1.4
23 | YGLQGGMDFLDKRLQVKEHQHEEI [A8D] | 3.79
24 | YGLQGGMLFLDKRLQVKEHQHEEI [A8L] | 2.67

Row | Variant | protein stability index
25 | YGLQGGMSFLDKRLQVKEHQHEEI [A8S] | 2.09
26 | YGLQGGMTFLDKRLQVKEHQHEEI [A8T] | 3.38
27 | YGLQGGMGFLDKRLQVKEHQHEEI [A8G] | 2.81
28 | YGLQGGMPFLDKRLQVKEHQHEEI [A8P] | 2.93
29 | YGLQGGMIFLDKRLQVKEHQHEEI [A8I] | 2.71
30 | YGLQGGMCFLDKRLQVKEHQHEEI [A8C] | 2
31 | YGLQGGMYFLDKRLQVKEHQHEEI [A8Y] | 2.68
32 | YGLQGGMQFLDKRLQVKEHQHEEI [A8Q] | 2.02
33 | YGLQGGMKFLDKRLQVKEHQHEEI [A8K] | 1.71
34 | YGLQGGMFFLDKRLQVKEHQHEEI [A8F] | 3.46
35 | YGKQGGMAFLDKRLQVKEHQHEEI [L3K] | 2.93
36 | YGNQGGMAFLDKRLQVKEHQHEEI [L3N] | 2.45
37 | YGGQGGMAFLDKRLQVKEHQHEEI [L3G] | 2.46
38 | YGHQGGMAFLDKRLQVKEHQHEEI [L3H] | 2.81
39 | YGMQGGMAFLDKRLQVKEHQHEEI [L3M] | 2.31
40 | YGQQGGMAFLDKRLQVKEHQHEEI [L3Q] | 2.73
41 | YGDQGGMAFLDKRLQVKEHQHEEI [L3D] | 2.96
42 | YGEQGGMAFLDKRLQVKEHQHEEI [L3E] | 2.37
43 | YGIQGGMAFLDKRLQVKEHQHEEI [L3I] | 2.2
44 | YGPQGGMAFLDKRLQVKEHQHEEI [L3P] | 2.55
45 | YGWQGGMAFLDKRLQVKEHQHEEI [L3W] | 3.64
46 | YGAQGGMAFLDKRLQVKEHQHEEI [L3A] | 1.92
47 | YGYQGGMAFLDKRLQVKEHQHEEI [L3Y] | 2.99
48 | YGRQGGMAFLDKRLQVKEHQHEEI [L3R] | 3.69

Row | Variant | protein stability index
49 | YGCQGGMAFLDKRLQVKEHQHEEI [L3C] | 2.03
50 | YGTQGGMAFLDKRLQVKEHQHEEI [L3T] | 2.86
51 | YGFQGGMAFLDKRLQVKEHQHEEI [L3F] | 2.76
52 | YGLQGGMAFLDKCLQVKEHQHEEI [R13C] | 2.56
53 | YGLQGGMAFLDKALQVKEHQHEEI [R13A] | 2.47
54 | YGLQGGMAFLDKDLQVKEHQHEEI [R13D] | 1.52
55 | YGLQGGMAFLCKRLQVKEHQHEEI [D11C] | 2.94
56 | YGLQGGMAFLYKRLQVKEHQHEEI [D11Y] | 2.74
57 | YGLQGGMAFLPKRLQVKEHQHEEI [D11P] | 2.33
58 | YGLQGGMAFLKKRLQVKEHQHEEI [D11K] | 2.27
59 | YGLQGGMAFLLKRLQVKEHQHEEI [D11L] | 2.37
60 | YGLQGGMAFLQKRLQVKEHQHEEI [D11Q] | 1.72
61 | YGLQGGMAFLMKRLQVKEHQHEEI [D11M] | 2.22
62 | YGLQGGMAFLTKRLQVKEHQHEEI [D11T] | 2.16
63 | YGLQGGMAFLHKRLQVKEHQHEEI [D11H] | 1.61
64 | YGLQGGMAFLWKRLQVKEHQHEEI [D11W] | 2.01
65 | YGLQGGMAFLIKRLQVKEHQHEEI [D11I] | 1.85
66 | YGLQGGMAFLEKRLQVKEHQHEEI [D11E] | 2.9
67 | YGLQGGMAFLGKRLQVKEHQHEEI [D11G] | 2.76
68 | YGLQGGMAFLAKRLQVKEHQHEEI [D11A] | 1.65
69 | YGLQGGMAFLNKRLQVKEHQHEEI [D11N] | 1.81
70 | YGLQGGMAFLVKRLQVKEHQHEEI [D11V] | 2.84
71 | YGLQGGMAFLFKRLQVKEHQHEEI [D11F] | 1.78
72 | YGLQGGMAFLSKRLQVKEHQHEEI [D11S] | 1.91

Row | Variant | protein stability index
73 | YGLQGGMAFLRKRLQVKEHQHEEI [D11R] | 1.95
74 | YGLQGYMAFLDKRLQVKEHQHEEI [G6Y] | 2.34
75 | YGLQGPMAFLDKRLQVKEHQHEEI [G6P] | 2.65
76 | YGLQGVMAFLDKRLQVKEHQHEEI [G6V] | 2.03
77 | YGLQGCMAFLDKRLQVKEHQHEEI [G6C] | 2.21
78 | YGLQGDMAFLDKRLQVKEHQHEEI [G6D] | 2.31
79 | YGLQGEMAFLDKRLQVKEHQHEEI [G6E] | 2.41
80 | YGLQGLMAFLDKRLQVKEHQHEEI [G6L] | 3.04
81 | YGLQGIMAFLDKRLQVKEHQHEEI [G6I] | 2.54
82 | YGLQGHMAFLDKRLQVKEHQHEEI [G6H] | 1.63
83 | YGLQGAMAFLDKRLQVKEHQHEEI [G6A] | 3.1
84 | YGLQGNMAFLDKRLQVKEHQHEEI [G6N] | 2.32
85 | YGLQGKMAFLDKRLQVKEHQHEEI [G6K] | 2.46
86 | YGLQGMMAFLDKRLQVKEHQHEEI [G6M] | 2.26
87 | YGLQGQMAFLDKRLQVKEHQHEEI [G6Q] | 2.95
88 | YGLQGSMAFLDKRLQVKEHQHEEI [G6S] | 2.13
89 | YGLQGTMAFLDKRLQVKEHQHEEI [G6T] | 1.73
90 | YGLQGWMAFLDKRLQVKEHQHEEI [G6W] | 1.97
91 | YGLQGRMAFLDKRLQVKEHQHEEI [G6R] | 2.85
92 | YGLQGGMAFLDPRLQVKEHQHEEI [K12P] | 1.88
93 | YGLQGGMAFLDQRLQVKEHQHEEI [K12Q] | 1.81
94 | YGLQGGMAFLDERLQVKEHQHEEI [K12E] | 1.99
